Target: high molecular weight-melanoma associated antigen (HMW-MAA), human (human) (UniProt Q6UVK1)
Assay: competition cell ELISA on HMW-MAA+ SK-MEL-28 cells, 1 h at 4 °C, SA-HRP; competitor: biotinylated scFv C21 (0.25 µg/well); axis gives µg of mAb, not a concentration

Sequence of high molecular weight-melanoma associated antigen (HMW-MAA), human (human) (Q6UVK1 30-2322): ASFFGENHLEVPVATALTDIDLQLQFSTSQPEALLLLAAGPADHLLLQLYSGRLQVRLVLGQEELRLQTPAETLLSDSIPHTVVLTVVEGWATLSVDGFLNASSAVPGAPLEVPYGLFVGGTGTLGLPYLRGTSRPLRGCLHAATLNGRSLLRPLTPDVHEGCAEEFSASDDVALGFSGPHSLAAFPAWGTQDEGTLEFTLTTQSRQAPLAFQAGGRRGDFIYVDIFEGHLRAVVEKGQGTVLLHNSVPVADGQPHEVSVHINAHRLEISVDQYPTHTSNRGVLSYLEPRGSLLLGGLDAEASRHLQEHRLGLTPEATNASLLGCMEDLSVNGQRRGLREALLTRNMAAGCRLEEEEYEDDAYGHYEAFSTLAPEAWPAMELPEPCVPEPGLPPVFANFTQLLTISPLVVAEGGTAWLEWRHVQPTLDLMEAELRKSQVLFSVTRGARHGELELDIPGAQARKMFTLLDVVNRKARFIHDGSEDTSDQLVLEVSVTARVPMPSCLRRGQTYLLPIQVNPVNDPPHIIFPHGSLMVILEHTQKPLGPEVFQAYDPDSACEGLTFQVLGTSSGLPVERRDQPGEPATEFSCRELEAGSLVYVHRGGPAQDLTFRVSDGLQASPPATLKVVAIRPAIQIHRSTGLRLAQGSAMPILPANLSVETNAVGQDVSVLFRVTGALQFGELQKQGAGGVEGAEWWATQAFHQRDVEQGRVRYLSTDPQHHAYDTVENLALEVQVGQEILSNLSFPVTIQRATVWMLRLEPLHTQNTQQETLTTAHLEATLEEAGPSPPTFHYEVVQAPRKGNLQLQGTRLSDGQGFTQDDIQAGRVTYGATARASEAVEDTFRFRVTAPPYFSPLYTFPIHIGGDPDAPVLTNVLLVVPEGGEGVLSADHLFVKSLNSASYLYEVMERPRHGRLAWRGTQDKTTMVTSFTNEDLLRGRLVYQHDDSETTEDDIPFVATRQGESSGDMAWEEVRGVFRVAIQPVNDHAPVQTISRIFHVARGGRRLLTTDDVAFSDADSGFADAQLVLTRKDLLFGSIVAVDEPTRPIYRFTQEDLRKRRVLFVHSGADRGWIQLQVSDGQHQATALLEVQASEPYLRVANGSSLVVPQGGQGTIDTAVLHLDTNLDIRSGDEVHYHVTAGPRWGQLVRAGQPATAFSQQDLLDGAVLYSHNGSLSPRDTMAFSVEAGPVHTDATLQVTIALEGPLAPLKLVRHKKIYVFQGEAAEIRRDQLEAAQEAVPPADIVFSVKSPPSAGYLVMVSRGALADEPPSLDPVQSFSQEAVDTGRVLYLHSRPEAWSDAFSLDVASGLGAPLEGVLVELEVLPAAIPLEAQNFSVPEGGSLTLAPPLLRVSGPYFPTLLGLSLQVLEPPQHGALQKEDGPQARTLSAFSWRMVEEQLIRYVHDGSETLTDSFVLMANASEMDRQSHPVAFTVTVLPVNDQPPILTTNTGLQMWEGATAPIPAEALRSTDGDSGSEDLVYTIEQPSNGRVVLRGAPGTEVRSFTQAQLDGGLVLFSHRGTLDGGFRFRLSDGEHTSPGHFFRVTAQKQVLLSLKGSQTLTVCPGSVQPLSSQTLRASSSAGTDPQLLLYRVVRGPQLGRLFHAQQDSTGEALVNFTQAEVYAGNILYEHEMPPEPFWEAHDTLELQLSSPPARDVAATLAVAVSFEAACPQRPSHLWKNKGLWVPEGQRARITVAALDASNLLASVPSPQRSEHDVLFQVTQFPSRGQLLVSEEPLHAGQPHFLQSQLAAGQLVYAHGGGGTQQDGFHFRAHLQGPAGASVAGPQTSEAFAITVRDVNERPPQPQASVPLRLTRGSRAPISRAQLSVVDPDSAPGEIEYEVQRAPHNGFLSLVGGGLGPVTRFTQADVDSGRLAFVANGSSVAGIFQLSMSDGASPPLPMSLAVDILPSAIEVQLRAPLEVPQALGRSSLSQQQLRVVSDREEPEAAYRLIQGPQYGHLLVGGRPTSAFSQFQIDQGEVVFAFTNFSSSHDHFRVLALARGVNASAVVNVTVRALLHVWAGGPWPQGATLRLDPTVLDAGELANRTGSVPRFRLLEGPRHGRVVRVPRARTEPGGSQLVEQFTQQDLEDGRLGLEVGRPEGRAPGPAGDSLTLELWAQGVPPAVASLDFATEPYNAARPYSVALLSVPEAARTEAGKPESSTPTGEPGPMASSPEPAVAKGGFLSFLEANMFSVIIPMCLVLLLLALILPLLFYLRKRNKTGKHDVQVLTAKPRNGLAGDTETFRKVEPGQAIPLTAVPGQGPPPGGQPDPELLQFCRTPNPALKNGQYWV

IC50 (read off the curve): 0.03 µg
Substance: HMW-MAA-specific mouse mAb VF1-TP34 (antibody)
